Assay results from patent EP2002021B1.

How the values were obtained:
Test in all cases: cell-based or functional assay
[1] = molecular target: CCR5-tTA fusion construct containing the low efficiency cleavage site (UniProt P51681)
[2] = molecular target: EGFR-TEV-NIa-Pro cleavage (Leu)-tTA (human) (UniProt P00533)
[3] = molecular target: IGF1R-TEV-NIa-Pro cleavage (Leu)-tTA (human) (UniProt P08069)
Sequence of UniProt P08069 (P08069 whole entry, form in doubt): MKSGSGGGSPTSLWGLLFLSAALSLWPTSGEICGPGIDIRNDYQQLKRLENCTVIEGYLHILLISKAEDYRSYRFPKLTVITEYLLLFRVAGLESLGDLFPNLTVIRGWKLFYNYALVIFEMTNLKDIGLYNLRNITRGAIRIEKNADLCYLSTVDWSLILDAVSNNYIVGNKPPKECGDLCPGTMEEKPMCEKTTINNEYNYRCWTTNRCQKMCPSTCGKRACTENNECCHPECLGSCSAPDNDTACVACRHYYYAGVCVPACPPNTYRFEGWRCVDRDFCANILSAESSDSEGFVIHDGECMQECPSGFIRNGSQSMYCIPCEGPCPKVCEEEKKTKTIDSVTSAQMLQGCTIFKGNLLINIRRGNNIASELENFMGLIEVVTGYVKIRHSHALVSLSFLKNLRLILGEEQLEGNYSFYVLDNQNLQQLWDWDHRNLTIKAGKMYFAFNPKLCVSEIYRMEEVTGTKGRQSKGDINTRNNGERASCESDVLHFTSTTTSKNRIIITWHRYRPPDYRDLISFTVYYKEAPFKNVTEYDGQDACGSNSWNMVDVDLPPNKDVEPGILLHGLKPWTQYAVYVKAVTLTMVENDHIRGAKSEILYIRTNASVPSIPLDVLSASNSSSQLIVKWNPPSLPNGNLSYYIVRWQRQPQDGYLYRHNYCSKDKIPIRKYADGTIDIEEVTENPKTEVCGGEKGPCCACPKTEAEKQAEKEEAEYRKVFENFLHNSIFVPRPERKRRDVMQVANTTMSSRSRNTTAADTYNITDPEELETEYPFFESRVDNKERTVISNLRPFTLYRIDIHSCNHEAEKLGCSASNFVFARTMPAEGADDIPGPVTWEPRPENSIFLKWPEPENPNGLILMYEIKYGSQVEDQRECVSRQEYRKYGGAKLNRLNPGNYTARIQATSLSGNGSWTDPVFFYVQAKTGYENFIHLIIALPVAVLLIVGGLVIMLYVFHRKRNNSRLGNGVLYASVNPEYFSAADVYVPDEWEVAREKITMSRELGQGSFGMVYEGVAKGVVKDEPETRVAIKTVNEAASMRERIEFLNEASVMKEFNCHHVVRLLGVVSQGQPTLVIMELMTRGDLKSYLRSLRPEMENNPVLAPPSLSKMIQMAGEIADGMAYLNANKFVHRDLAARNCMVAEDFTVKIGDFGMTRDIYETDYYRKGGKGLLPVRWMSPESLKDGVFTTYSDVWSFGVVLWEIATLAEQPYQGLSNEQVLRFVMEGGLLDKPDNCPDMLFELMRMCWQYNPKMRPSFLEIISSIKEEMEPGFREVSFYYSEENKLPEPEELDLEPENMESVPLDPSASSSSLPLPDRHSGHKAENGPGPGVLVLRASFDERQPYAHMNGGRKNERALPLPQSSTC

Sequence of UniProt P51681 (P51681 whole entry, form in doubt, the tested form may be a part): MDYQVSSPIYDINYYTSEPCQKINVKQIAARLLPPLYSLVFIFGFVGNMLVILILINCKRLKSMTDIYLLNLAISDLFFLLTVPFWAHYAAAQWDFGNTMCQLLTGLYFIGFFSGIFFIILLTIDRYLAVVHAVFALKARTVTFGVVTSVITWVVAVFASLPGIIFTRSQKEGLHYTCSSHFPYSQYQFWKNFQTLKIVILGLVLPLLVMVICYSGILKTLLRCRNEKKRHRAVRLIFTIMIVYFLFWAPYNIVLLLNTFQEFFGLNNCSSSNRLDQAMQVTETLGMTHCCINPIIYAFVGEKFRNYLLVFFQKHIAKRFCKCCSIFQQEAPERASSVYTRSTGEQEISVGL

## Regulated on Activation, Normal T-Cell Expressed and Secreted (RANTES) (from UniProt P13501 24-91) (ligand)
[1]
  fold induction of reporter gene expression over the background, 1 µg/ml RANTES, clone 34 cells: 40 fold

## PLC Gamma1-TEV
[2]
  fold increase of luciferase reporter gene activity, 2.5 ng/ml EGF: 12.3 fold
  fold increase of luciferase reporter gene activity, 100 ng/ml TGF-alpha: 18.3 fold

## SHC1-TEV (from UniProt P29353 1-238)
[3]
  fold increase of luciferase reporter gene activity, 1 µM IGF-1: 90 fold

## human Transforming Growth Factor - Alpha (from UniProt P01135 40-89) (ligand)
[2]
  fold increase of luciferase reporter gene activity, 100 ng/ml TGF-alpha: 18.3 fold
